Article PMC3492748

Tests used:
[1] = biological target: geminin (Xenopus laevis (endogenous in eggs and embryos)) (UniProt O93352); assay: co-IP
[2] = biological target: Cdt1 (Xenopus laevis (endogenous in eggs and embryos)) (UniProt Q9I9A7); assay: co-IP

| Substance | decline of co-precipitation over 20 minutes after fertilisation [1] [%] | decline of co-precipitation over 20 minutes after fertilisation [2] [%] |
| --- | --- | --- |
| Cdt1 (from UniProt Q9I9A7 1-617) (natural protein) | > 50 | – |
| geminin (from UniProt O93352 1-219) (natural protein) | – | > 50 |
